What was measured:
[1] = biological target: RXRa (Homo sapiens, UniProt P19793); assay: no ligand; PBM; 180 nM; PBS pH 7.4, 2% milk, 0.02% Triton X-100, 1 mM DTT, BSA, 0.4 mg/ml salmon testes DNA; settings: tags: His cleaved; chain copies: 2; label: surface-attached array probe
[2] = biological target: PPARg:RXRa (Homo sapiens, UniProt P37231;P19793 full;full); assay: no ligand; PBM; 180 nM : 90 nM RXRa; PBS pH 7.4, 2% milk, 0.02% Triton X-100, 1 mM DTT, BSA, 0.4 mg/ml salmon testes DNA; settings: tags: His kept;His cleaved; copies: 1;1; label: surface-attached array probe
PPARg:RXRa, sequence (P37231 29-505, chain 1 of 2): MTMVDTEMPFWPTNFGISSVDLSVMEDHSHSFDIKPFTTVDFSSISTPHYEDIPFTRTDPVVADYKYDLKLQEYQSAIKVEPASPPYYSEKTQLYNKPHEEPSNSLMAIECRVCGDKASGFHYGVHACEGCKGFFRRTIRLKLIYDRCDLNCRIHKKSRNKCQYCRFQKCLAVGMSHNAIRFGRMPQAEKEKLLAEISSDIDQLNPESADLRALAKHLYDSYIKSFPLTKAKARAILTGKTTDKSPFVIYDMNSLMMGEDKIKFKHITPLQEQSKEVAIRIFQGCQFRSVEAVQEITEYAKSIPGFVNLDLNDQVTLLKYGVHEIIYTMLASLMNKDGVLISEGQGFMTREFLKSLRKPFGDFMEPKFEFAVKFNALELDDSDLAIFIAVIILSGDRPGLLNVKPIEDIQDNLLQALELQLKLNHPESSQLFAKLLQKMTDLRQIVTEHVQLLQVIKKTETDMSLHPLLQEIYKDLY
PPARg:RXRa, sequence (P19793 whole entry, chain 2 of 2): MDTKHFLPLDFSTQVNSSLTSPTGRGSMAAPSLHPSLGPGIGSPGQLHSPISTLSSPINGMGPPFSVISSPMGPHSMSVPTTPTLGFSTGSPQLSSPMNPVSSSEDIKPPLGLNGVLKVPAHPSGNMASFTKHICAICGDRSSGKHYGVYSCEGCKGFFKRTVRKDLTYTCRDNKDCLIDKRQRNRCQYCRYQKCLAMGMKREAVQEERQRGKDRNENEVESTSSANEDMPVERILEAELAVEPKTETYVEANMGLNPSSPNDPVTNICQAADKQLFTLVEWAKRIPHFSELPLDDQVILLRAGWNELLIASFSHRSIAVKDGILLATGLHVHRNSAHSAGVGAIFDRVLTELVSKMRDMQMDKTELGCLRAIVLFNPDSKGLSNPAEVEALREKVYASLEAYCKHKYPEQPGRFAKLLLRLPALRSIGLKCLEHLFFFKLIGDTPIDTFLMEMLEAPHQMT

[3] = biological target: RARa:RXRa (Homo sapiens, UniProt P10276;P19793 full;full); assay: no ligand; PBM; 270 nM : 90 nM RXRa; PBS pH 7.4, 2% milk, 0.02% Triton X-100, 1 mM DTT, BSA, 0.4 mg/ml salmon testes DNA; settings: tags: His kept;His cleaved; copies: 1;1; label: surface-attached array probe
RARa:RXRa, sequence (P10276 whole entry, chain 1 of 2): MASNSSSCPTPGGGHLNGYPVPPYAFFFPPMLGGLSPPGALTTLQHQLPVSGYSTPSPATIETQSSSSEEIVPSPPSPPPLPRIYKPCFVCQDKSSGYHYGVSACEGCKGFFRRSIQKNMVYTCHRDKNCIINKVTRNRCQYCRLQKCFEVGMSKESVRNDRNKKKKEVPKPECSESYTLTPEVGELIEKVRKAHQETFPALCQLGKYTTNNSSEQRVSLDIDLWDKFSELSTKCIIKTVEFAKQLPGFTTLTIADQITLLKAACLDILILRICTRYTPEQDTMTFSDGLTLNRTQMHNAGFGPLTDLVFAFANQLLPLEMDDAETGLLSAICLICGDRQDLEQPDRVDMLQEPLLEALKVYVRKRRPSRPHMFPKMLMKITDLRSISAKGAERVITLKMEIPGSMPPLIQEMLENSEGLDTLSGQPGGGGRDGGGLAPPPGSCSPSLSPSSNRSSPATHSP
RARa:RXRa, sequence (P19793 whole entry, chain 2 of 2): as the sequence (P19793 whole entry, chain 2 of 2) above
Method in brief: (§1)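 Ligand-free nuclear receptor dimers were bound for 1 h to custom Agilent 4×180K protein-binding microarrays. Detection used antibodies against each partner (one per run). Binding z-scores rest on regression-normalized fluorescence, with random background probes as the reference.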

[4] = biological target: PPARa:RXRa (Homo sapiens, UniProt Q07869;P19793 full;full); assay: as above; settings: tags: GST kept;His cleaved; copies: 1;1; label: surface-attached array probe
PPARa:RXRa, sequence (Q07869 whole entry, chain 1 of 2): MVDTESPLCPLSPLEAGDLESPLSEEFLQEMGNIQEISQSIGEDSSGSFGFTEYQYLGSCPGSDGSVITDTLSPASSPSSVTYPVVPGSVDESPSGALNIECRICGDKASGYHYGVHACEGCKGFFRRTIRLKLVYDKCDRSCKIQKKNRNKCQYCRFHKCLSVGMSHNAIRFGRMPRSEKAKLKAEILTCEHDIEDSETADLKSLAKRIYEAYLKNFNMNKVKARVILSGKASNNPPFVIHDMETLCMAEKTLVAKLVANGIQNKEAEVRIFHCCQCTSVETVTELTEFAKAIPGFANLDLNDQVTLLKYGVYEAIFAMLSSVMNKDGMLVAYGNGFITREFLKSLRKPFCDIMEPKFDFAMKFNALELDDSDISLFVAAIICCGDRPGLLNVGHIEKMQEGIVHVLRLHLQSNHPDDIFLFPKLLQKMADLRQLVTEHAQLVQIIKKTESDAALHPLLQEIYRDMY
PPARa:RXRa, sequence (P19793 whole entry, chain 2 of 2): as the sequence (P19793 whole entry, chain 2 of 2) above
Method in brief: as §1

[5] = biological target: LXRb:RXRa (Homo sapiens, UniProt P55055;P19793 full;full); assay: as above; settings: tags: His kept;His cleaved; copies: 1;1; label: surface-attached array probe
LXRb:RXRa, sequence (P55055 whole entry, chain 1 of 2): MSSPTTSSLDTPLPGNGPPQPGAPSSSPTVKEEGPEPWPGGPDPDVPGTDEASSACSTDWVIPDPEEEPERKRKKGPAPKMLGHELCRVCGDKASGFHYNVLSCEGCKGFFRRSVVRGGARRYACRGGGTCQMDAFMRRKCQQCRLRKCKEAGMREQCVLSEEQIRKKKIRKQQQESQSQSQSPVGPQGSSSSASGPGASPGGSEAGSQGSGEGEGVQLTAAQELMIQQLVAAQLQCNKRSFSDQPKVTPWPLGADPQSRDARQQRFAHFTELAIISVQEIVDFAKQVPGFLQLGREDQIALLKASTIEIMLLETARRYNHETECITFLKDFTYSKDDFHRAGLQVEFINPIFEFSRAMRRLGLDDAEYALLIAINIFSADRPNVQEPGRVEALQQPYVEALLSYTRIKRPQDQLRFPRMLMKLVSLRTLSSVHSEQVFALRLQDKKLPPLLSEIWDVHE
LXRb:RXRa, sequence (P19793 whole entry, chain 2 of 2): as the sequence (P19793 whole entry, chain 2 of 2) above
Method in brief: as §1

[6] = biological target: FXR:RXRa (Homo sapiens, UniProt Q96RI1;P19793 full;full); assay: as above; settings: tags: His kept;His cleaved; copies: 1;1; label: surface-attached array probe
FXR:RXRa, sequence (Q96RI1 whole entry, chain 1 of 2): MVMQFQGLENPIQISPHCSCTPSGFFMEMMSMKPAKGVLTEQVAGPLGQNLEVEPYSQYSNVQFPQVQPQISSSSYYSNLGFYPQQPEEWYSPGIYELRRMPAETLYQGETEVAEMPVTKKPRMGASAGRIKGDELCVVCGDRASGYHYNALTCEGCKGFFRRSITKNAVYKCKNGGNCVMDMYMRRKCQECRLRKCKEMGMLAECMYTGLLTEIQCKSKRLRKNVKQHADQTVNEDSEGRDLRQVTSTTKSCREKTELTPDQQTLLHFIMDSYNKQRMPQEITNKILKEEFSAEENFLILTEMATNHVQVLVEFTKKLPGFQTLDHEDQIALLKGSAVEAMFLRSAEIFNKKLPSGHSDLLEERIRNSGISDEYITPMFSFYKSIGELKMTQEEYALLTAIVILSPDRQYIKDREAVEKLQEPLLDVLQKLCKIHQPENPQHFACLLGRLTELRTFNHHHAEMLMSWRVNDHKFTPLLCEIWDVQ
FXR:RXRa, sequence (P19793 whole entry, chain 2 of 2): as the sequence (P19793 whole entry, chain 2 of 2) above
Method in brief: as §1

[7] = biological target: PXR:RXRa (Homo sapiens, UniProt O75469;P19793 full;full); assay: as above; settings: tags: His kept;His cleaved; copies: 1;1; label: surface-attached array probe
PXR:RXRa, sequence (O75469 whole entry, chain 1 of 2): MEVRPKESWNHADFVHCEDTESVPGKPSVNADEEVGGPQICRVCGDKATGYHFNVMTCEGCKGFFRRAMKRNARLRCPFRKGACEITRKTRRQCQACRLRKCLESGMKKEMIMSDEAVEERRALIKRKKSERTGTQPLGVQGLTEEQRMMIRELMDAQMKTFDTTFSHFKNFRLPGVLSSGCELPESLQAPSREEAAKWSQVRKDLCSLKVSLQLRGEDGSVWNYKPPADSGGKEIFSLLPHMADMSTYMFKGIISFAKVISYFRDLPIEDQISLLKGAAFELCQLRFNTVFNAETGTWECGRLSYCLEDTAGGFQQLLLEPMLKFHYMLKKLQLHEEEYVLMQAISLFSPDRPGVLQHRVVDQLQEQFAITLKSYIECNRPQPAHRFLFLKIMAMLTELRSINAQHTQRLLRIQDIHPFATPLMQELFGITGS
PXR:RXRa, sequence (P19793 whole entry, chain 2 of 2): as the sequence (P19793 whole entry, chain 2 of 2) above
Method in brief: as §1

[8] = biological target: RARb:RXRa (Homo sapiens, UniProt P10826;P19793 full;full); assay: as above; settings: tags: His kept;His cleaved; copies: 1;1; label: surface-attached array probe
Method in brief: as §1

[9] = biological target: LXRa:RXRa (Homo sapiens, UniProt Q13133;P19793 full;full); assay: as above; settings: tags: His kept;His cleaved; copies: 1;1; label: surface-attached array probe
LXRa:RXRa, sequence (Q13133 whole entry, chain 1 of 2): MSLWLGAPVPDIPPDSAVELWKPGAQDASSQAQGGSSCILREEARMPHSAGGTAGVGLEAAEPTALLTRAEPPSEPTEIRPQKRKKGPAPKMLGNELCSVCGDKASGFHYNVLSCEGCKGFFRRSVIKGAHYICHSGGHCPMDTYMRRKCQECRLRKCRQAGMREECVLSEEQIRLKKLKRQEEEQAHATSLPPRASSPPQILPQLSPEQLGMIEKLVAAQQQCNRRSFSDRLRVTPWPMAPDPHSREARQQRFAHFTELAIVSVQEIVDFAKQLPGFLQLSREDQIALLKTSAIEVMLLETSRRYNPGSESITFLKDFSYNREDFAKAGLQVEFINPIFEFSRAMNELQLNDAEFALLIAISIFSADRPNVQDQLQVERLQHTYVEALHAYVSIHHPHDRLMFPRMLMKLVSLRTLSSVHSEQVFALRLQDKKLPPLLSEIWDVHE
LXRa:RXRa, sequence (P19793 whole entry, chain 2 of 2): as the sequence (P19793 whole entry, chain 2 of 2) above
Method in brief: as §1

[10] = biological target: RARg:RXRa (Homo sapiens, UniProt P13631;P19793 full;full); assay: as above; settings: tags: His kept;His cleaved; copies: 1;1; label: surface-attached array probe
RARg:RXRa, sequence (P13631 whole entry, chain 1 of 2): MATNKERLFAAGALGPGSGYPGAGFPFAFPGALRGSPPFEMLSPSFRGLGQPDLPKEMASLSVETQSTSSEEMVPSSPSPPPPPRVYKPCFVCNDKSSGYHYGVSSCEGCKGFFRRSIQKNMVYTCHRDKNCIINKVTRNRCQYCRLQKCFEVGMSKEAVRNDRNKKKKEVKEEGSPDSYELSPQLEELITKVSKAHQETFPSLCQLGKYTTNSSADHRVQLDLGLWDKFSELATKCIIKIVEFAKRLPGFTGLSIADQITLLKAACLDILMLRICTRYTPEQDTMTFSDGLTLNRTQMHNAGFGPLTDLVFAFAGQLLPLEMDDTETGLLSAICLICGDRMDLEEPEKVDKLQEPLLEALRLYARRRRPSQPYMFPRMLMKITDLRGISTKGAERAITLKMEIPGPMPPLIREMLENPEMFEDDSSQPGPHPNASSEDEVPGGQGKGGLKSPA
RARg:RXRa, sequence (P19793 whole entry, chain 2 of 2): as the sequence (P19793 whole entry, chain 2 of 2) above
Method in brief: as §1

[11] = biological target: VDR:RXRa (Homo sapiens, UniProt P11473;P19793 full;full); assay: as above; settings: tags: His kept;His cleaved; copies: 1;1; label: surface-attached array probe
Method in brief: as §1

RXRa, sequence (P19793 whole entry): as the sequence (P19793 whole entry, chain 2 of 2) above

B1: NRC3_wobSeed30_DR1_C12T_o1 (dsDNA)
DNA 1: GCACTAGCAGGTCAAGGGTCACTCAAGATTAGTCCGGCGATTGACAGCGTAGAATGAAGG
DNA 2: CCTTCATTCTACGCTGTCAATCGCCGGACTAATCTTGAGTGACCCTTGACCTGCTAGTGC
binding signal [1]: 8.53 PBM z-score against 500 random probes
binding signal [2]: 11.2 PBM z-score against 500 random probes
binding signal [3]: 8.23 PBM z-score against 500 random probes

B2: NRC3_wobSeed18_DR0_A8G_o1 (dsDNA)
DNA 1: GCGATACGGGGTCAAGGCCAGAGTACGCGTATTGATGCGATTGACAGCGTAGAATGAAGG
DNA 2: CCTTCATTCTACGCTGTCAATCGCATCAATACGCGTACTCTGGCCTTGACCCCGTATCGC
binding signal [1]: 8.69 PBM z-score against 500 random probes
binding signal [4]: 6.56 PBM z-score against 500 random probes
binding signal [5]: 5.96 PBM z-score against 500 random probes
binding signal [6]: 8.08 PBM z-score against 500 random probes
binding signal [7]: 6.46 PBM z-score against 500 random probes
binding signal [3]: 7.56 PBM z-score against 500 random probes

B3: NRC3_wobSeed28_DR1_C7G_o1 (dsDNA)
DNA 1: GCCCTAGTGGGCCAAAGGTCATTGATTCCAATGCTCGCGATTGACAGCGTAGAATGAAGG
DNA 2: CCTTCATTCTACGCTGTCAATCGCGAGCATTGGAATCAATGACCTTTGGCCCACTAGGGC
binding signal [2]: 13.1 PBM z-score against 500 random probes
binding signal [3]: 7.08 PBM z-score against 500 random probes

B4: NRC3_wobSeed123_DR5_A12T_o1 (dsDNA)
DNA 1: GCCCTCGGAGGTCAACAGGAGGTCAGAGCTGCCAGAGCGATTGACAGCGTAGAATGAAGG
DNA 2: CCTTCATTCTACGCTGTCAATCGCTCTGGCAGCTCTGACCTCCTGTTGACCTCCGAGGGC
binding signal [8]: 5.85 PBM z-score against 500 random probes
binding signal [9]: 6.72 PBM z-score against 500 random probes
binding signal [4]: 6.94 PBM z-score against 500 random probes
binding signal [6]: 7.97 PBM z-score against 500 random probes
binding signal [7]: 6.48 PBM z-score against 500 random probes
binding signal [3]: 7.44 PBM z-score against 500 random probes
binding signal [10]: 8.86 PBM z-score against 500 random probes

B5: NRC3_wobSeed38_DR1_T16G_o1 (dsDNA)
DNA 1: GCCCTGCTAGGTCAAGGGTCAGCTAAAGCAGCTCGCGCGATTGACAGCGTAGAATGAAGG
DNA 2: CCTTCATTCTACGCTGTCAATCGCGCGAGCTGCTTTAGCTGACCCTTGACCTAGCAGGGC
binding signal [2]: 10.5 PBM z-score against 500 random probes
binding signal [3]: 7.26 PBM z-score against 500 random probes

B6: NRC3_wobSeed41_DR1_A15G_o1 (dsDNA)
DNA 1: GCATATGTAGGTTAGGGGTCATTCAGGTTGGTTCGCGCGATTGACAGCGTAGAATGAAGG
DNA 2: CCTTCATTCTACGCTGTCAATCGCGCGAACCAACCTGAATGACCCCTAACCTACATATGC
binding signal [11]: 6.69 PBM z-score against 500 random probes
binding signal [5]: 5.79 PBM z-score against 500 random probes
binding signal [7]: 6.45 PBM z-score against 500 random probes
binding signal [3]: 7.24 PBM z-score against 500 random probes

B7: NRC3_wobSeed114_DR4_A8G_o1 (dsDNA)
DNA 1: GCAATACGGGGTCATCGTAGGCCAGAGTACGCACAGGCGATTGACAGCGTAGAATGAAGG
DNA 2: CCTTCATTCTACGCTGTCAATCGCCTGTGCGTACTCTGGCCTACGATGACCCCGTATTGC
binding signal [1]: 9.29 PBM z-score against 500 random probes
binding signal [11]: 7.09 PBM z-score against 500 random probes
binding signal [9]: 7.63 PBM z-score against 500 random probes
binding signal [4]: 6.87 PBM z-score against 500 random probes
binding signal [5]: 6.75 PBM z-score against 500 random probes
binding signal [6]: 8.6 PBM z-score against 500 random probes
binding signal [7]: 6.64 PBM z-score against 500 random probes
binding signal [3]: 7.2 PBM z-score against 500 random probes
binding signal [10]: 7.44 PBM z-score against 500 random probes

B8: NRC3_wobSeed109_DR4_C7T_o1 (dsDNA)
DNA 1: GCCGTCTAAGGTCATAGGAGGTCAGTGAAGACAGATGCGATTGACAGCGTAGAATGAAGG
DNA 2: CCTTCATTCTACGCTGTCAATCGCATCTGTCTTCACTGACCTCCTATGACCTTAGACGGC
binding signal [9]: 8.01 PBM z-score against 500 random probes
binding signal [6]: 8.24 PBM z-score against 500 random probes
binding signal [7]: 7.34 PBM z-score against 500 random probes
binding signal [3]: 7.11 PBM z-score against 500 random probes

B9: NRC3_random_hg19_25_o1 (dsDNA)
DNA 1: GCGAGCCACCACGCCTGGCCTCTCCGATCTCCAACTGCGATTGACAGCGTAGAATGAAGG
DNA 2: CCTTCATTCTACGCTGTCAATCGCAGTTGGAGATCGGAGAGGCCAGGCGTGGTGGCTCGC
binding signal [9]: -0.38 PBM z-score against 500 random probes
binding signal [5]: -0.09 PBM z-score against 500 random probes
binding signal [7]: -0.45 PBM z-score against 500 random probes
binding signal [3]: -0.44 PBM z-score against 500 random probes
